Source: PMC5587908
“And” between values parts separate entries of the source, which are not always exact repeats. Identical values can stand only once.

Legend:
human plasminogen (Plg) = assay: ELISA; set-up: dose or concentration left out as unconfirmed; conditions: FnBPB proteins immobilized on microtiter wells, read off a plot
[1] = biological target: full-length FnBPB on S. aureus FnBPB^(+) cells (S. aureus strain 8325-4); assay: single-molecule force spectroscopy (AFM); Fg tips against living FnBPB^(+) cells; PBS, contact time 100 ms, applied force 250 pN, speed 1,000 nm s^-1
[2] = biological target: full-length FnBPB on S. aureus FnBPB^(+) cells (S. aureus strain 8325-4); assay: single-molecule force spectroscopy (AFM); as a7, in the presence of 0.1 mg ml^-1 Fg in the AFM chamber
[3] = biological target: full-length FnBPB on S. aureus FnBPB^(+) cells (S. aureus strain 8325-4); assay: single-molecule force spectroscopy (AFM); Plg on the AFM tip (PEG-benzaldehyde linker) against living S. aureus cells trapped in porous membranes; PBS, 20°C, contact time 250 ms, applied force 250 pN, speed 1,000 nm s^-1; without Fg
[4] = biological target: FnBPA (194-511), FnBPA_(N2N3) (S. aureus) (UniProt P14738); assay: ELISA; FnBPA_(N2N3) or FnBPB_(N2N3) coated on microtiter wells (200 ng/well, 0.1 M sodium carbonate pH 9.5), increasing concentrations of Plg for 1 h; bound Plg detected with rabbit anti-Plg and HRP goat anti-rabbit IgG; Kd from the Plg saturation kinetics
[5] = biological target: FnBPB (163-480), FnBPB_(N2N3) (S. aureus); assay: as above
[6] = biological target: full-length FnBPB on S. aureus FnBPB^(+) cells (S. aureus strain 8325-4); assay: single-cell force spectroscopy (AFM); as a5, in the presence of 0.1 mg ml^-1 Fg in the AFM chamber
[7] = biological target: full-length FnBPB on S. aureus FnBPB^(+) cells (S. aureus strain 8325-4); assay: single-cell force spectroscopy (AFM); single living S. aureus cell on a polydopamine-coated colloidal cantilever against Plg coupled to a gold substrate (NHS/EDC); PBS, 20°C, contact time 1 s, applied force 250 pN, speed 1,000 nm s^-1; without Fg

FnBPB (163-480), FnBPB_(N2N3) (from UniProt A0A0H2XKG3) N312A; F314A
response (human plasminogen (Plg); + Fg (black bar), saturating amounts of Fg, bound Plg detected with rabbit antibodies followed by HRP-con, parent: est. 1.5): 1.5 A490nm
response (human plasminogen (Plg); - Fg (white bar), bound Plg detected with rabbit antibodies followed by HRP-conjugated goat anti-rabbit IgG, parent: est. 1.6): 1.5 A490nm

human fibrinogen (Fg) (from UniProt P02671 36-866; P02675 45-491; P02679 27-453) (complex)
adhesion force (single molecule, cell 1) [1]: 1970 pN
adhesion force (single molecule, cell 2) [1]: 1690 pN
adhesion force (single molecule, cell 3) [1]: 1960 pN

human plasminogen (Plg) (natural protein)
binding force (cell 1, with 0.1 mg/ml Fg) [2]: 898 pN
binding force (cell 2, with 0.1 mg/ml Fg) [2]: 619 pN
binding force (cell 3, with 0.1 mg/ml Fg) [2]: 561 pN
binding probability (cell 1, with 0.1 mg/ml Fg) [2]: 81%
binding probability (cell 2, with 0.1 mg/ml Fg) [2]: 79%
binding probability (cell 3, with 0.1 mg/ml Fg) [2]: 73%
adhesion force (single molecule) [3]: 188 pN
adhesion frequency [3]: 40%
binding force (cell 1) [3]: 175 pN
binding force (cell 2) [3]: 154 pN
binding force (cell 3) [3]: 176 pN
binding probability (cell 1) [3]: 67%
binding probability (cell 2) [3]: 24%
binding probability (cell 3) [3]: 42%
Kd [4]: 600 nM
Kd [5]: 380 nM
mean adhesion force (single cell, 3 cells, with 0.1 mg/ml Fg) [6]: 2100 pN
adhesion force (single cell, cell 1) [7]: 556 pN
adhesion force (single cell, cell 2) [7]: 249 pN
adhesion force (single cell, cell 2, a few curves) [7]: 1630 pN
adhesion force (single cell, cell 3) [7]: 1600 pN
maximum adhesion force (single cell, cells 2 and 3) [7]: 1500 pN and 2000 pN
mean adhesion force (single cell, 3 cells) [7]: 775 pN
